{"source": "patent US20090143319", "key": {"[1]": {"target": "NF-kB p65 (RelA) (UniProt Q04206)", "sequence (Q04206 whole entry)": "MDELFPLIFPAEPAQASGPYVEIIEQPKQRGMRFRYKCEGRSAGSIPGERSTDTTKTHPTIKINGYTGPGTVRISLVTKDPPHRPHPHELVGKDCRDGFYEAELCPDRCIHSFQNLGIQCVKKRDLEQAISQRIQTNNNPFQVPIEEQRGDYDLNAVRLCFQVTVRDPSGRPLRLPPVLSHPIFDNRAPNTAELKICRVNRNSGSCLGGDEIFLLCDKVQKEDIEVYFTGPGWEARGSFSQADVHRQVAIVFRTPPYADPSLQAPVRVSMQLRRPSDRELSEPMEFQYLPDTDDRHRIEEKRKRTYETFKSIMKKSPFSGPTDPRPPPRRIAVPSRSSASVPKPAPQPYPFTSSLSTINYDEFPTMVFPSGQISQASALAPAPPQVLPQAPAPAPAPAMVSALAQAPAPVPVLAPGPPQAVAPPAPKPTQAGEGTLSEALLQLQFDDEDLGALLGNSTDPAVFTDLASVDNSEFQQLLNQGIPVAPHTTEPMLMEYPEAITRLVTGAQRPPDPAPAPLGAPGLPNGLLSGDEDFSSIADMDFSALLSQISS", "assay": "competition", "conditions": "unit not given"}, "[2]": {"tested_on": "NF-kB", "assay": "cell_activity", "conditions": "NF-kB SEAP reporter, 0.1 uM"}}, "data": [{"sequence": "ACCAGGGGATTTCCCCGTCCCAC (double strand) [SEQ-G]", "values": [{"measurement": "IC50", "setting": "[1]", "value": 1.71}]}, {"sequence": "AGCTGGGGATTTCCCCTTTG (double strand) [SEQ-F]", "values": [{"measurement": "IC50", "setting": "[1]", "value": 3.4}]}, {"sequence": "AGTATCGGGGATTTCCCCTTAAC (double strand) [SEQ-E]", "values": [{"measurement": "IC50", "setting": "[1]", "value": 1.91}]}, {"sequence": "AGTTGAGGGGATTTCCCCAGGC (double strand) [SEQ-A]", "values": [{"measurement": "IC50", "setting": "[1]; ELISA competition with immobilized NF-kB site, room temperature", "value": 1.51}]}, {"sequence": "AGTTGAGGGGATTTCCCCGC (double strand) [SEQ-H]", "values": [{"measurement": "IC50", "setting": "[1]", "value": 1.08}]}, {"sequence": "CCTTGAAGGGATTTCCCTCC (double strand) [SEQ-1]", "values": [{"measurement": "IC50", "setting": "[1]; PS (*): C*C*TTGAAGG*G*A*TTTCCCT*C*C / G*G*AGGGAAA*T*C*CCTTCAA*G*G", "value": 0.84}]}, {"sequence": "CCTTGAAGGGATTTCCCTCC (double strand) [SEQ-x (full PS)]", "values": [{"measurement": "IC50", "setting": "[1]; PS at all positions, both strands, 2.60 in Table 3", "value": 3.97}]}, {"sequence": "CCTTGAGGGGATTTCCCCCC (double strand) [SEQ-9]", "values": [{"measurement": "activity", "setting": "[2]; PS (*): C*C*TTG*A*GGGGATTT*C*CCCCC / antisense 5'-G*G*GGGGAAA*T*C*CCCTCAAGG", "value": 70, "unit": "% inhibition"}]}, {"sequence": "CCTTGAGGGGATTTCCCCCC (double strand) [SEQ-I-PS]", "values": [{"measurement": "IC50", "setting": "[1]; PS at 2 bonds at each end of both strands", "value": 1.06}]}, {"sequence": "CCTTGAGGGGATTTCCCCCC (double strand) [SEQ-I]", "values": [{"measurement": "IC50", "setting": "[1]", "value": 0.384}]}, {"sequence": "GAGGGGATTTCCCC (double strand) [SEQ-33]", "values": [{"measurement": "activity", "setting": "[2]; PS (*): G*A*GGGGATTT*C*CCC / antisense 5'-GGGGAAA*T*C*CCCTC", "value": 70, "unit": "% inhibition"}]}, {"sequence": "GAGGGGATTTCCCC (double strand) [SEQ-34]", "values": [{"measurement": "activity", "setting": "[2]; PS (*): G*A*GGGGATTT*C*CCC / antisense 5'-G*GGGAAA*T*C*CCCTC", "value": 99, "unit": "% inhibition"}]}, {"sequence": "GAGGGGATTTCCCC (double strand) [SEQ-35]", "values": [{"measurement": "activity", "setting": "[2]; PS (*): G*A*GGGGATTT*C*CCC / antisense 3'-CTCCC*C*T*AAAG*G*GGG (so in the source)", "value": 70, "unit": "% inhibition"}]}, {"sequence": "TTGAGGGGATTTCCCC (double strand) [SEQ-36]", "values": [{"measurement": "activity", "setting": "[2]; PS (*): T*TG*A*GGGGATTT*C*CCC / antisense 5'-G*GGGAAA*T*C*CCCTCAA", "value": 80, "unit": "% inhibition"}]}, {"sequence": "TTGAGGGGATTTCCCC (double strand) [SEQ-37]", "values": [{"measurement": "activity", "setting": "[2]; PS (*): T*T*G*A*GGGGATTT*C*CCC / antisense 5'-G*G*GGAAA*T*C*CCCTCAA", "value": 75, "unit": "% inhibition"}]}, {"sequence": "TTGAGGGGATTTCCCC (double strand) [SEQ-38]", "values": [{"measurement": "activity", "setting": "[2]; PS (*): TTG*A*GGGGATTT*C*CCC / antisense 5'-GGGGAAA*T*C*CCCTCAA", "value": 90, "unit": "% inhibition"}]}]}
